From patent US20210040232A1
Values belong to the binder of their own block, whether it stands above or below them.

How the values were obtained:
[1] = target: mf CTLA-4 extracellular domain (aa 1-161) fused to the trans-membrane and cytoplasmic domain of hCD300a (aa 181-299), on Jurkat/NFAT-Luc cells (Macaca fascicularis; human) (UniProt G7PL88); assay: ECL cell binding, Jurkat/NFAT-Luc/mfCTLA-4-hCD300a cells
[2] = target: mf CTLA-4 extracellular domain (aa 1-161) fused to the trans-membrane and cytoplasmic domain of hCD300a (aa 181-299), on Jurkat/NFAT-Luc cells (Macaca fascicularis; human) (UniProt G7PL88); assay: cell-based or functional assay
[3] = target: human CTLA-4 (amino acids M1-N223) on stably transfected VI-fibroblast cells (human) (UniProt P16410); assay: ECL cell binding, VI-fibroblast/hCTLA-4 cells
human CTLA-4 (amino acids M1-N223) on stably transfected VI-fibroblast cells (human), sequence (P16410 36-223 limits assumed): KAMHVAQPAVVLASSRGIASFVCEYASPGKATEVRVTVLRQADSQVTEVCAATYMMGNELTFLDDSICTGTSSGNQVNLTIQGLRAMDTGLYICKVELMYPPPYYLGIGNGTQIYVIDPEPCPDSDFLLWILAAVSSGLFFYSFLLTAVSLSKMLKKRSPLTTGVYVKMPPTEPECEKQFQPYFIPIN

mf CTLA-4 extracellular domain (aa 1-161) fused to the trans-membrane and cytoplasmic domain of hCD300a (aa 181-299), on Jurkat/NFAT-Luc cells (Macaca fascicularis; human), sequence (Q9UGN4 other isoform, or with tags, fused parts or gaps, form in doubt): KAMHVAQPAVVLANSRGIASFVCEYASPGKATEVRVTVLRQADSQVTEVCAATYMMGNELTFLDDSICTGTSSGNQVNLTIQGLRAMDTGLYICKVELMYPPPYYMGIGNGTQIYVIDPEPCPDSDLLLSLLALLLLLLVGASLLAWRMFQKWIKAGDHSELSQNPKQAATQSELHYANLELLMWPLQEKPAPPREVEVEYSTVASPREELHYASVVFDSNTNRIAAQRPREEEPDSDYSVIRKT

- EC50 [1]: 0.11 nM
- EC50, T-cell/APC IL-2 release assay, APC HEK293/hCD20/hCD86 [2]: 40.9 nM
- EC50, T-cell/APC NFAT-luciferase assay, +Fc Block [2]: 1.77 nM
- EC50, T-cell/APC NFAT-luciferase assay, -Fc Block [2]: 1.28 nM
- Fold induction of IL-2 at 100 nM, APC HEK293/hCD20/hCD86 [2]: 4.4 fold
B1: H1H19303P (antibody, human IgG1, kappa, V domains shown)
VH: EVQLVESGGGLVQPGGSLRLSCAASGFTFSNYEMSWVRQAPGKGLEWVSSIRTSGTTKYYADSMKGRFTISRDNAKNSLYLQMNSLRAEDTAVYYCAGGGTFLHYWGQGTLVTVSS
VL: DIQMTQSPSSVSASVGDRVTITCRASQGIASYLAWYQQKPGKAPKLLIYAASSLQTGVPSRFSGSGYGTDFTLTISSLQPEDFATYYCQQAKSFPMYTFGQGTKLEIKR

- EC50 [1]: 0.22 nM
- EC50, T-cell/APC IL-2 release assay, APC HEK293/hCD20/hCD86 [2]: 11.4 nM
- EC50, T-cell/APC NFAT-luciferase assay, +Fc Block [2]: 1.83 nM
- EC50, T-cell/APC NFAT-luciferase assay, -Fc Block [2]: 3.05 nM
- Fold induction of IL-2 at 100 nM, APC HEK293/hCD20/hCD86 [2]: 6.5 fold
B2: H1H19273P (antibody, human IgG1, V domains shown)
VH: QITLKESGPTLVKPTQTLTLTCTFSGFSLSTSGVGVGWIRQSPGRALEWLALIYWNDHERYSPSLKSRLTITKDTSKNLVVLAMANMDPVDTATYFCAHRNIEYRRSYFFDYWGQGTLVTVSS
VL: DIQMTQSPSSVSASVRDRVTVTCRASQDINNWLAWYQQKPGKAPKLLIYAASSLQSGVPSRFSGSGSGTDFTLTISSLQPEDFATYYCQQANTFPFTFGPGTKVDIK

- EC50 [1]: 0.14 nM
- EC50, T-cell/APC IL-2 release assay, APC HEK293/hCD20/hCD86 [2]: 21.9 nM
- EC50, T-cell/APC NFAT-luciferase assay, +Fc Block [2]: 1.84 nM
- EC50, T-cell/APC NFAT-luciferase assay, -Fc Block [2]: 1.34 nM
- Fold induction of IL-2 at 100 nM, APC HEK293/hCD20/hCD86 [2]: 6.1 fold
B3: H1H19313P (antibody, human IgG1, V domains shown)
VH: QITLKESGPTLVKPTQTLTLTCTFSGFSLSTSGVGVGWIRQPPGVALEWLALIYWNDDKRFSPSLKSRLTITKDTSKNQVVLTMTNMDPVDTATYYCAHRRLGLYYFDYWGQGTLVTVSS
VL: DIQLTQSPSFLSASVGDRVTITCWASQGISSYLAWYQQKPGKAPKLLIYAASTLQSGVPSRFSGSGSGTEFTLTISSLQPEDFATYYCQQVHIYPFTFGPGTKVDIK

- ratio of RLU signal to parental VI-fibroblast at 0.4 nM Ab [3]: 1
B4: H1H19264P (antibody, human IgG1, V domains shown)
VH: QVQLVQSGAEVKKPGASVKVSCKASDYTFTSYGISWVRQAPGQGLEWMGWISVYNGNINYAQKFKGRVTMTTDTSTSTAYMELRSLRSDDMAVYYCARVTQFGMDVWGQGTTVTVSS
VL: DIQMTQSPSSLSASVGDRVTITCRASQSISSNLNWYQQNPGKAPKLLIYTTSSLQGGVPSRFSGSGSGTDFTLTISSLQPEDFATYYCQQSFRTPFTFGPGTKVDIK
